Common to all, as to assay type: biochemical
Common to all, as to conditions: other: substrate on purified human 20S proteasome; pH 8.0; 37.0 °C

Substrate in data set [1]: Cc1cc(=O)oc2cc(NC(=O)[C@H](Cc3ccc(O)cc3)NC(=O)[C@@H](NC(=O)[C@H](CC(C)C)NC(=O)[C@H](CC(C)C)NC(=O)CCC(=O)O)C(C)C)ccc12
Briefly: Proteasome activity measurement, chymotrypsin-like.

Substrate in data set [2]: Cc1cc(=O)oc2cc(NC(=O)[C@H](CCCNC(=N)N)NC(=O)CNC(=O)[C@@H](NC(=O)c3ccccc3)C(C)C)ccc12
In words: Proteasome activity measurement, trypsin-like.

Substrate in data set [3]: Cc1cc(=O)oc2cc(NC(=O)[C@H](CCC(=O)O)NC(=O)[C@H](CC(C)C)NC(=O)[C@H](CC(C)C)NC(=O)OCc3ccccc3)ccc12
In words: Proteasome activity measurement, caspase-like.

B1: chymotrypsin-like activity of human 20S proteasome (Homo sapiens) (protein)
chain: TTTLAFKFRHGVIVAADSRATAGAYIASQTVKKVIEINPYLLGTMAGGAADCSFWERLLARQCRIYELRNKERISVAAASKLLANMVYQYKGMGLSMGTMICGWDKRGPGLYYVDSEGNRISGATFSVGSGSVYAYGVMDRGYSYDLEVEQAYDLARRAIYQATYRDAYSGGAVNLYHVREDGWIRVSSDNVADLHEKYSGSTP
notes: purchased Boston Biochem, Inc
B1: the Km (as a rule, the concentration of substrate that gives half-maximal velocity) in data set [1] was found to be 100 ± 12 µM.

B2: trypsin-like activity of human 20S proteasome (Homo sapiens) (protein)
chain: TTIAGVVYKDGIVLGADTRATEGMVVADKNCSKIHFISPNIYCCGAGTAADTDMTTQLISSNLELHSLSTGRLPRVVTANRMLKQMLFRYQGYIGAALVLGGVDVTGPHLYSIYPHGSTDKLPYVTMGSGSLAAMAVFEDKFRPDMEEEEAKNLVSEAIAAGIFNDLGSGSNIDLCVISKNKLDFLRPYTVPNKKGTRLGRYRCEKGTTAVLTEKITPLEIEVLEETVQTMDTS
notes: purchased Boston Biochem, Inc
For B2, the Km in data set [2] was found to be 44 ± 5 µM.

B3: caspase-like activity of human 20S proteasome (Homo sapiens) (protein)
chain: TTIMAVQFDGGVVLGADSRTTTGSYIANRVTDKLTPIHDRIFCCRSGSAADTQAVADAVTYQLGFHSIELNEPPLVHTAASLFKEMCYRYREDLMAGIIIAGWDPQEGGQVYSVPMGGMMVRQSFAIGGSGSSYIYGYVDATYREGMTKEECLQFTANALALAMERDGSSGGVIRLAAIAESGVERQVLLGDQIPKFAVATLPPA
notes: purchased Boston Biochem, Inc
For B3, the Km in data set [3] was determined as 37 ± 9 µM.

Values taken from paper PMC3408433, “Selective Cytotoxicity of Amidinopiperidine Based Compounds Towards Burkitt’s Lymphoma Cells Involves Proteasome Inhibition” (PLoS ONE, 2012).
